# Experimental data as given in patent US12099068B2, “Biomarkers for graft-versus-host disease” (Incyte Corporation, priority 2018, dated 2024).
# B1: PPP1R2 (protein, UniProt P41236 2-205, looked up)
# Protein phosphatase inhibitor …: AASTASHRPIKGILKNKTSTTSSMVASAEQPRGNVDEELSKKSQKWDEMNILATYHPADKDYGLMKIDEPSTPYHSMMGDDEDACSDTEATEAMAPDILARKLAAAEGLEPKYRIQEQESSGEEDSDLSPEEREKKRQFEMKRKLHYNEGLNIKLARQLISKDLHDDDEDEEMLETADGESMNTEESNQGSTPSDQQQNKLRSS
# B2: IRAK1 (protein, UniProt P51617 1-712, looked up)
# Interleukin-1 …: MAGGPGPGEPAAPGAQHFLYEVPPWVMCRFYKVMDALEPADWCQFAALIVRDQTELRLCERSGQRTASVLWPWINRNARVADLVHILTHLQLLRARDIITAWHPPAPLPSPGTTAPRPSSIPAPAEAEAWSPRKLPSSASTFLSPAFPGSQTHSGPELGLVPSPASLWPPPPSPAPSSTKPGPESSVSLLQGARPFPFCWPLCEISRGTHNFSEELKIGEGGFGCVYRAVMRNTVYAVKRLKENADLEWTAVKQSFLTEVEQLSRFRHPNIVDFAGYCAQNGFYCLVYGFLPNGSLEDRLHCQTQACPPLSWPQRLDILLGTARAIQFLHQDSPSLIHGDIKSSNVLLDERLTPKLGDFGLARFSRFAGSSPSQSSMVARTQTVRGTLAYLPEEYIKTGRLAVDTDTFSFGVVVLETLAGQRAVKTHGARTKYLKDLVEEEAEEAGVALRSTQSTLQAGLAADAWAAPIAMQIYKKHLDPRPGPCPPELGLGLGQLACCCLHRRAKRRPPMTQVYERLEKLQAVVAGVPGHSEAASCIPPSPQENSYVSSTGRAHSGAAPWQPLAAPSGASAQAAEQLQRGPNQPVESDESLGGLSAALRSWHLTPSCPLDPAPLREAGCPQGDTAGESSWGSGPGSRPTAVEGLALGSSASSSSEPPQIIINPARQKMVQKLALYEDGALDSLQLLSSSSLPGLGLEQDRQGPEESDEFQS
# B3: CRKL (protein, UniProt P46109 1-303, looked up)
# Crk-like protein: MSSARFDSSDRSAWYMGPVSRQEAQTRLQGQRHGMFLVRDSSTCPGDYVLSVSENSRVSHYIINSLPNRRFKIGDQEFDHLPALLEFYKIHYLDTTTLIEPAPRYPSPPMGSVSAPNLPTAEDNLEYVRTLYDFPGNDAEDLPFKKGEILVIIEKPEEQWWSARNKDGRVGMIPVPYVEKLVRSSPHGKHGNRNSNSYGIPEPAHAYAQPQTTTPLPAVSGSPGAAITPLPSTQNGPVFAKAIQKRVPCAYDKTALALEVGDIVKVTRMNINGQWEGEVNGRKGLFPFTHVKIFDPQNPDENE
# B4: SMOC2 (protein, UniProt Q9H3U7 22-446, looked up)
# SPARC-related modular …: QKFSALTFLRVDQDKDKDCSLDCAGSPQKPLCASDGRTFLSRCEFQRAKCKDPQLEIAYRGNCKDVSRCVAERKYTQEQARKEFQQVFIPECNDDGTYSQVQCHSYTGYCWCVTPNGRPISGTAVAHKTPRCPGSVNEKLPQREGTGKTDDAAAPALETQPQGDEEDIASRYPTLWTEQVKSRQNKTNKNSVSSCDQEHQSALEEAKQPKNDNVVIPECAHGGLYKPVQCHPSTGYCWCVLVDTGRPIPGTSTRYEQPKCDNTARAHPAKARDLYKGRQLQGCPGAKKHEFLTSVLDALSTDMVHAASDPSSSSGRLSEPDPSHTLEERVVHWYFKLLDKNSSGDIGKKEIKPFKRFLRKKSKPKKCVKKFVEYCDVNNDKSISVQELMGCLGVAKEDGKADTKKRHTPRGHAESTSNRQPRKQG
# B5: PILRA (protein, UniProt Q9UKJ1 20-303, looked up)
# Paired immunoglobulin-like …: QPSGSTGSGPSYLYGVTQPKHLSASMGGSVEIPFSFYYPWELATAPDVRISWRRGHFHRQSFYSTRPPSIHKDYVNRLFLNWTEGQKSGFLRISNLQKQDQSVYFCRVELDTRSSGRQQWQSIEGTKLSITQAVTTTTQRPSSMTTTWRLSSTTTTTGLRVTQGKRRSDSWHISLETAVGVAVAVTVLGIMILGLICLLRWRRRKGQQRTKATTPAREPFQNTEEPYENIRNEGQNTDPKLNPKDDGIVYASLALSSSTSPRAPPSHRPLKSPQNETLYSVLKA
# B6: ANG-1 (protein, UniProt Q15389 16-498, looked up)
# Angiopoietin-1: HIGCSNQRRSPENSGRRYNRIQHGQCAYTFILPEHDGNCRESTTDQYNTNALQRDAPHVEPDFSSQKLQHLEHVMENYTQWLQKLENYIVENMKSEMAQIQQNAVQNHTATMLEIGTSLLSQTAEQTRKLTDVETQVLNQTSRLEIQLLENSLSTYKLEKQLLQQTNEILKIHEKNSLLEHKILEMEGKHKEELDTLKEEKENLQGLVTRQTYIIQELEKQLNRATTNNSVLQKQQLELMDTVHNLVNLCTKEGVLLKGGKREEEKPFRDCADVYQAGFNKSGIYTIYINNMPEPKKVFCNMDVNGGGWTVIQHREDGSLDFQRGWKEYKMGFGNPSGEYWLGNEFIFAITSQRQYMLRIELMDWEGNRAYSQYDRFHIGNEKQNYRLYLKGHTGTAGKQSSLILHGADFSTKDADNDNCMCKCALMLTGGWWFDACGPSNLNGMFYTAGQNHGKLNGIKWHYFKGPSYSLRSTTMMIRPLDF
# B7: PRTN3 (protein, UniProt P24158 28-248, looked up)
# Myeloblastin: IVGGHEAQPHSRPYMASLQMRGNPGSHFCGGTLIHPSFVLTAAHCLRDIPQRLVNVVLGAHNVRTQEPTQQHFSVAQVFLNNYDAENKLNDVLLIQLSSPANLSASVATVQLPQQDQPVPHGTQCLAMGWGRVGAHDPPAQVLQELNVTVVTFFCRPHNICTFVPRRKAGICFGDSGGPLICDGIIQGIDSFVIWGCATRLFPDFFTRVALYVDWIRSTLR
# B8: CCL5 (protein, UniProt P13501 24-91, looked up)
# C-C motif chemokine 5: SPYSSDTTPCCFAYIARPLPRAHIKEYFYTSGKCSNPAVVFVTRKNRQVCANPEKKWVREYINSLEMS
# B9: STX6 (protein, UniProt O43752 2-255, looked up)
# Syntaxin-6: SMEDPFFVVKGEVQKAVNTAQGLFQRWTELLQDPSTATREEIDWTTNELRNNLRSIEWDLEDLDETISIVEANPRKFNLDATELSIRKAFITSTRQVVRDMKDQMSTSSVQALAERKNRQALLGDSGSQNWSTGTTDKYGRLDRELQRANSHFIEEQQAQQQLIVEQQDEQLELVSGSIGVLKNMSQRIGGELEEQAVMLEDFSHELESTQSRLDNVMKKLAKVSHMTSDRRQWCAIAILFAVLLVVLILFLVL
# B10: DFFA (protein, UniProt O00273 1-331, looked up)
# DNA fragmentation factor …: MEVTGDAGVPESGEIRTLKPCLLRRNYSREQHGVAASCLEDLRSKACDILAIDKSLTPVTLVLAEDGTIVDDDDYFLCLPSNTKFVALASNEKWAYNNSDGGTAWISQESFDVDETDSGAGLKWKNVARQLKEDLSSIILLSEEDLQMLVDAPCSDLAQELRQSCATVQRLQHTLQQVLDQREEVRQSKQLLQLYLQALEKEGSLLSKQEESKAAFGEEVDAVDTGISRETSSDVALASHILTALREKQAPELSLSSQDLELVTKEDPKALAVALNWDIKKTETVQEACERELALRLQQTQSLHSLRSISASKASPPGDLQNPKRARQDPT
# B11: MAP2K6 (protein, UniProt P52564 1-334, looked up)
# Dual specificity …: MSQSKGKKRNPGLKIPKEAFEQPQTSSTPPRDLDSKACISIGNQNFEVKADDLEPIMELGRGAYGVVEKMRHVPSGQIMAVKRIRATVNSQEQKRLLMDLDISMRTVDCPFTVTFYGALFREGDVWICMELMDTSLDKFYKQVIDKGQTIPEDILGKIAVSIVKALEHLHSKLSVIHRDVKPSNVLINALGQVKMCDFGISGYLVDSVAKTIDAGCKPYMAPERINPELNQKGYSVKSDIWSLGITMIELAILRFPYDSWGTPFQQLKQVVEEPSPQLPADKFSAEFVDFTSQCLKKNSKERPTYPELMQHPFFTLHESKGTDVASFVKLILGD
# System: plasma proteins
# Assay: Plasma proteins modulated between baseline and day 28 in responders (CR, VGPR, PR; n = 19), Example 6 (Table 13)
# Type: in vivo, human
# Details: plasma protein (OLINK NPX); responders (CR, VGPR, PR; n = 19); itacitinib 200 mg or 300 mg QD with corticosteroids; day 28 vs baseline
# Experimental: Due to the limited sample size, steroid-naive (N=10) and steroid-refractory (N=18) patients were combined for further analysis. Broad proteomic analysis of over 1000 proteins was conducted by OLINK Proteomics (Watertown, MA) using a proximity extension assay as described by the manufacturer. Data are presented as normalized protein expression (NPX) in log 2 scale. Statistical differences were evaluated using unpaired and paired t tests, one-way […] (ANOVA), and Pearson Correlation. Significance was conferred when P<0.05.
# Longitudinal differences in protein expression were analyzed by evaluating plasma samples from baseline/screening and day 28.
Molecule,"Fold Change, Decreased Expression from Baseline to Day 28","Fold Change, Increased Expression from Baseline to Day 28"
B1,−1.3339,
B2,−1.2986,
B3,−1.8003,
B4,,1.2842
B5,−1.2582,
B6,−1.7898,
B7,−1.7658,
B8,−1.6357,
B9,−1.4715,
B10,−1.31,
B11,−1.8184,
